Experimental findings from patent publication US20090291088A1 (Biogen, published 2009) are described below.

Broadly, the Kd is the free concentration of one partner at which half of the binding sites on the other are occupied at equilibrium, for simple one-to-one binding. Read a low Kd as higher affinity. Broadly, the koff is the rate constant with which the complex falls apart. The kon is the second-order rate constant of association. As a reminder, the EC50 is the concentration giving half of the maximal effect.

In assay [1] the target is T1, human IGF-1R(1-903)-Fc (human, UniProt P08069 31-933).
T1 construct: Made by Biogen Idec; Multimerises through IGF-1R and Fc; also called hIGF-1R-Fc; IGF-1R-Fc; not shown: C-terminal human IgG1-Fc tag
The experiment in a line: ELISA on hIGF-1R-Fc, competitor Zenon-labelled αIR3. (An ELISA detects its analyte on a solid surface through an enzyme-linked reagent.)

For assay [2], the target named is T1, human IGF-1R(1-903)-Fc. Briefly: ELISA on hIGF-1R-Fc, competitor biotinylated M14-G11.
The target of assay [3] is T2, hIGF-1R-Fc mutant SD207 (G265Y) (human, UniProt P08069 31-933).
T2 construct: not shown: C-terminal human IgG1-Fc tag
The experiment in a line: SPR, antibody over captured mutant. On the procedure: (§1) Surface plasmon resonance (SPR) experiments were performed on a Biacore 3000 instrument set to 25° C. […] The antibody sensorchip surfaces were prepared by injecting each antibody (diluted 100 μg/mL in 10 mM Acetate, pH 4.0) over EDC/NHS-activated sensorchip surfaces according to the standard protocol of the manufacturer. […] Both hIGF-1R-Fc and mIGF-1R-Fc proteins oligomerize due to the incorporation of two separate homodimeric regions (IGF-1R and IgG1-Fc). […] After, completion of the receptor-Fc loading step, flow rates were elevated to 5 μl/min. […] Dissociation was measured for 7 minutes after the antibody injections were complete. Finally, the flow rate was elevated to 30 μL/min and the chip surfaces were regenerated by 2×10 μL injections of 0.1 M glycine, pH 2.
On the technique in general: Surface plasmon resonance follows binding to a sensor surface in real time, without labels.

Assay [4] concerns the target T3, hIGF-1R-Fc mutant SD203 (N254A) (human, UniProt P08069 31-933).
T3 construct: not shown: C-terminal human IgG1-Fc tag
Briefly: SPR, antibody over captured mutant. On the procedure: as §1

Assay [5] has as its target T4, hIGF-1R-Fc mutant SD012 (E303G) (human, UniProt P08069 31-933).
T4 construct: not shown: C-terminal human IgG1-Fc tag
The experiment in a line: SPR, Fab over captured SD012. Here is the method:
as §1

Assay [6] concerns the target T5, human IGF-1R(1-902)-His10 (human, UniProt P08069 31-932).
T5 construct: Cy5-labelled in tr-FRET; also called hIGF-1R-His10; IGF-1R-His
Briefly: SPR, Fab over captured IGF-1R-10His. Here is the method:
All surface plasmon resonance (SPR) experiments were performed on a Biacore 3000 set to 25° C. using HBS-EP (Biacore, Cat. No. BR-1001-88) as the running buffer. A biotin-labeled anti-HisTag antibody (biotin-PENTA-His, Qiagen Cat. No. 34440) was immobilized to saturation on a Biacore SA chip (Cat. No. BR-1000-32) surface by injection at 500 nM in HBS-EP buffer. […] Subsequent to IGF-1R injections, flow rates were increased to 20 μL/min. A second, 130 μL injection of anti-IGF-1R antibody or Fab was performed to investigate interactions with the receptor. Each antibody and Fab was serially diluted from 64 nM to 0.5 nM to obtain concentration dependent kinetic binding curves. Each injection series was regenerated using 3×10 μL injections of 10 mM Acetate, pH 4.0, at 20 μL/min. Each curve was double referenced using (1) data obtained from a streptavidin surface devoid of IGF-1R and (2) data from a primary injection of IGF-1R followed by a secondary injection of HBS-EP buffer. The concentration series for each antibody and Fab was fit to the 1:1 binding model provided within the BiaEvaluation software of the manufacturer.
To obtain discrete affinities, Fab fragments of each antibody were generated using papain digestion as described above.

For assay [7], the target named is T6, human IGF-1R expressed on cells (human, UniProt P08069 31-1367).
T6 construct: On MCF-7 tumor cells or on 3T3/CHO transfectants; precursor is processed into alpha and beta subunits; Signal peptide 1-30 left out as stated; also called wild type IGF-1R; IGF-1R 3T3
Briefly: flow cytometry, MCF-7 cells. Here is the method:
The ability of Fabs to bind to the wild type IGF-1R was determined by flowcytometry using MCF-7 tumor cell line.
MCF-7 cells (Human Breast Adenocarcinoma from NCI) were split 24 hours prior to the setup of the assay to obtain 70% confluent monolayer. Routinely, MCF-7 cell line was maintained within 20 passages. Cells were lifted with cell dissociation buffer (Gibco catalog #13151-014), counted, washed and adjusted to 1×10⁶ cells/ml and one ml of cells were then added to each tube (12×75 mm tube Falcon catalog# 352054). Cells were pelleted and supernatant removed by centrifugation at 1200 rpm for 5 min and 100 μl of diluted antibodies were then added to the cell pellet. Purified Fabs were tested at a starting concentration of either 210 or 60 μg/ml with 1:3 dilutions in FACS buffer, down to 0.001 μg/ml. FACS buffer used throughout the assay was PBS (without Ca++/Mg++) containing 1% BSA (Sigma catalog# A-7906; Sigma-Aldrich Corp. (St. Louis, Mo., USA)) and 0.1% Sodium Azide (Sigma catalog #S2002). […] Samples were allowed to incubate on ice for 1 hour and 15 minutes then were washed with 2 ml FACS buffer and centrifuged at 1200 rpm for 5 minutes at 4° C. The supernatant was aspirated and 100 μl of the secondary detection antibody was added to each corresponding tube in FACS buffer. Samples were then incubated for 30 minutes on ice, in the dark. Cells were washed as described above, then, re-suspended in […] FACS buffer per tube/sample.
Cells were stained for live cell determination with Propidium Iodide staining solution (PI for dead cell exclusion; BD Pharmingen catalog# 51-66211E or 556463; use at 1:500 final in FACS buffer). Samples were run on the FACSCalibur instrument (Becton Dickinson) with 10,000 live events collected per sample.
On the technique in general: In flow cytometry, cells or beads pass a laser one at a time.

The target in assay [8] is T7, hIGF-1R-Fc mutant SD015 (H464E) (human, UniProt P08069 31-933).
T7 construct: not shown: C-terminal human IgG1-Fc tag
The experiment in a line: SPR, Fab over captured SD015.

In assay [9] the target is T8, hIGF-1R-Fc mutant SD008 (S257F) (human, UniProt P08069 31-933).
T8 construct: not shown: C-terminal human IgG1-Fc tag
Briefly: SPR, Fab over captured SD008. On the procedure: as §1

Assay [10] deals with T9, hIGF-1R-Fc mutant SD201 (D248A) (human, UniProt P08069 31-933).
T9 construct: not shown: C-terminal human IgG1-Fc tag
Briefly: SPR, Fab over captured mutant.

Assay [11] has as its target T10, hIGF-1R-Fc mutant SD202 (D250S) (human, UniProt P08069 31-933).
T10 construct: not shown: C-terminal human IgG1-Fc tag
Briefly: SPR, Fab over captured mutant.

Assay [12] has as its target T11, hIGF-1R-Fc mutant SD109 (Y482A, R483W) (human, UniProt P08069 31-933).
T11 construct: not shown: C-terminal human IgG1-Fc tag
The experiment in a line: SPR, Fab over captured mutant.

The target of assay [13] is T12, hIGF-1R-Fc mutant SD103 (D461A, V462T) (human, UniProt P08069 31-933).
T12 construct: not shown: C-terminal human IgG1-Fc tag
The experiment in a line: SPR, Fab over captured mutant.

Assay [14] deals with T13, hIGF-1R-Fc mutant SD110 (E533H) (human, UniProt P08069 31-933).
T13 construct: not shown: C-terminal human IgG1-Fc tag
Briefly: SPR, Fab over captured mutant.

For assay [15], the target named is T14, hIGF-1R-Fc mutant SD102 (E459A, S460A) (human, UniProt P08069 31-933).
T14 construct: not shown: C-terminal human IgG1-Fc tag
Briefly: SPR, Fab over captured mutant.

Assay [16] concerns the target T15, hIGF-1R-Fc mutant SD108 (H480E) (human, UniProt P08069 31-933).
T15 construct: not shown: C-terminal human IgG1-Fc tag
Briefly: SPR, Fab over captured mutant.

Assay [17] addresses T16, hIGF-1R-Fc mutant SD113 (E570A, I571T) (human, UniProt P08069 31-933).
T16 construct: not shown: C-terminal human IgG1-Fc tag
The experiment in a line: SPR, Fab over captured mutant.

Assay [18] deals with T17, hIGF-1R-Fc mutant SD104 (H464A) (human, UniProt P08069 31-933).
T17 construct: not shown: C-terminal human IgG1-Fc tag
The experiment in a line: SPR, Fab over captured mutant.

Assay [19] deals with T7, hIGF-1R-Fc mutant SD015 (H464E). Briefly: SPR, Fab over captured mutant.

B1: P1E2 (chimeric antibody) (antibody, human IgG4, V domains shown)
VH: QVQLQQPGAELVKPGASVKLSCKASGYTFTSYWMHWVKQRPGQGLEWIGEINPTYGRSNYNEKFKSKATLTVDKSSSTAYMQLSSLTSEDSAVYYCARLVRLRYFDVWGAGTTVTVSS
VL: DIVMTQAAFSNPVTLGTSASISCRSSKSLLHSNGITYLYWYLQKPGQSPQLLIYQMSNLASGVPDRFSSSGSGTDFTLRISRVEAEDVGVYYCAQNLELPYTFGGGTKLEIK
notes: also called chimeric antibody P1E2
In the case of B1, the “percent competition (relative to self-competition)” value in the assay with human IGF-1R(1-903)-Fc [1] and with human IGF-1R(1-903)-Fc [2] was 90 to 100% in each case. The binding result in assay [3] and in [4] was “no binding (tested: 30 nM)” in each case.

B2: M14-G11 Fab (Fab, V domains shown)
VH: EVQLLESGGGLVQPGGSLRLSCAASGFTFSNYPMYWVRQAPGKGLEWVSRISSSGGRTVYADSVKGRFTISRDNSKNTLYLQMNSLRAEDTAVYYCARDRWSRSAAEYGLGGYWGQGTLVTVSS
VL: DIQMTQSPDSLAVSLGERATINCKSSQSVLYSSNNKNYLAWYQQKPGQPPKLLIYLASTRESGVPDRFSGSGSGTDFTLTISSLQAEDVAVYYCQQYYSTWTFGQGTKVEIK
notes: Human phage Fab, kappa
Turning to B2, the “fold loss in affinity against wild-type” value in [5] and in [9] was about 3 fold throughout. Also, the figures for the Kd in assay [6] and in assay [8] were 4 nM and 4 to 6 nM, respectively. The off-rate (koff) in [6] is 0.0012 s⁻¹. The molecule further yielded a kon in assay [6] of 300000 M⁻¹ s⁻¹. Besides, the EC50 in assay [7] stood at 39.8 nM. Besides, the binding result in assay [10] and in [11] was “no binding (tested: 30 nM)” in each case.

B3: M14-C03 Fab (Fab, V domains shown)
VH: EVQLLESGGGLVQPGGSLRLSCAASGFTFSKYMMSWVRQAPGKGLEWVSYISPSGGLTWYADSVKGRFTISRDNSKNTLYLQMNSLRAEDTAVYYCARDGARGYGMDVWGQGTTVTVSS
VL: DIQMTQSPATLSLSPGERATLSCRASQSVSSYLAWYQQKPGQAPRLLIYDASNRATGIPARFSGSGSGTDFTLTISSLEPEDFAVYYCQQRSNWPPEVTFGPGTKVDIK
notes: Human phage Fab, kappa
B3 had a Kd in [6] of 4.9 nM. Besides, in assay [6], the koff stood at 0.00094 s⁻¹. The molecule further returned an on-rate (kon) in [6] of 190000 M⁻¹ s⁻¹. In assay [7], this molecule showed an EC50 of 25.4 nM. Also, the binding result in [12], in assay [13], in [14], in assay [15], in [16] and in [17] was “no binding (tested: 30 nM)” throughout. In addition, the binding result in assay [18] and in [19] was “no binding (tested: 30 nM)” in each case.
